Experimental data: patent publication US20250345467A1, “DENDRIMER FOR THERAPY AND IMAGING” (priority 2018, published 2025)

Tests used:
[1] = Organ biodistribution, clearance and health monitoring in the prostate cancer xenograft study; type: in vivo, Balb/C nude mice; settings: Zr-89 labelled, mice bearing DU-145 or PC3 xenografts, whole study (9 days)
Description: The accumulation of two different dendrimer constructs in two different murine xenograft models of prostate cancer (DU145 and PC3 cell lines) was investigated. The two different constructs were compound 1b and 3 which are pre-conjugated with DFO, which were labelled with 89Zr for subsequent imaging studies. The biodistribution was measured by PET-CT out to 9 days in two different tumour xenografts and then validated by ex vivo gamma scintillation of excised organs at day 9.
Dendrimers were labelled and purified, validated by radioTLC prior to injection into the animals. Imaging was conducted in a cohort of n=4 mice for each cell line and each dendrimer. Standard health of the mice was monitored by score sheet and mouse weight over the complete timeframe of the study.
Healthy male Balb/C nude mice (˜20 g) from 8 weeks old were obtained from the ARC and used for this study. Mice were imported into the animal holding facility and monitored for 1 week prior to the study in order to acclimatise to the environment prior to injection of cells. […]
Mice (n=4 per group) bearing DU-145 or PC3 xenografts were injected with Zr-89 labelled dendrimers (compounds 1b and 3) via tail-vein. […] At 216 hrs post-injection, the organs were removed and signal intensity quantified by ex vivo gamma analysis. Faecal pellets were also measured for activity at this timepoint. […]

[2] = test system: DU-145 subcutaneous tumours; assay: Therapeutic study with radionuclide-containing dendrimers, DU-145 subcutaneous tumours; type: in vivo, Balb/C nude mice; settings: FIG. 20
Description: Healthy male Balb/C nude mice (˜20 g) from 8 weeks old were obtained from the ARC and used for this study. Mice were imported into the animal holding facility and monitored for 1 week prior to the study in order to acclimatise to the environment prior to injection of cells. All animals were provided with free access to food and water before and during the imaging experiments which were approved by the Animal Ethics Committee.
The following compounds were used in the study: • Example 4b • Example 5 • Jevtana® (cabazitaxel) • Comparative example A: a non-radionuclide-containing dendrimer, which is BHALys[Lys]32[α-DGA-Cabazitaxel]32†[ε-PEG˜2100]32‡. […] The actual mean number of PEG˜2100 groups attached to the BHALys[Lys]32 was determined experimentally by ^1H NMR. […]
78 mice were injected with 4×10^6 DU-145 cells in Matrigel into the right flank to induce subcutaneous tumours. Tumour volume and body mass was monitored twice per week before mice with evident tumour growth (approximately […] in volume, tumour volume=½ (length×width^2)) were randomly assigned to groups and injected with compounds according to the schedule outlined in the table below, at day 0, 7 and 14. Following injections, the mice were monitored three times per week for tumour volume and body mass. […]

[3] = test system: spontaneous gliomas (high grade glioma mouse model); assay: PET-MRI tumour imaging study, glioblastoma; type: in vivo, mice; settings: Zr-89 radiolabelled, approximately 5 MBq; for % ID/g at 40 hrs: 40 hrs post-injection; for % ID/g at 5 days: 5 days post-injection
Description: The aim of this study was to assess the level of accumulation of example radionuclide-containing dendrimers in mice bearing spontaneous gliomas. This model provides a route to effectively assess the ability to both cross the blood-brain-barrier (BBB) as well as accumulate in tumour tissue.
Gt(ROSA)26So^rtm14(CAG-tdTomato)Hze 20023653 was crossed with Pten^tm2MAK; Rb1^tm2Bm; Trp53^tm1Bm; Tg(GFAP-cre/Esr1*,−lacZ)BSbk^31,44-47 (alleles) and backcrossed six generations to latter mice to generate Gt(ROSA)26Sor^tm14(CAG-tdTomato)Hze; Pten^tm2MAK; Rb1^tm2Bm; Trp53^tm1Bm; Tg(GFAP-cre/Esr1*,−lacZ)BSbk (high grade glioma mouse model; HGG). Mice were maintained on a predominantly FVB/NJ background with contributions from 129/SV and C57Bl6. To induce Cre recombinase and thereby tumor formations, 20 mg/ml Tamoxifen (Sigma-Aldrich) dissolved in corn oil (Sigma-Aldrich) was injected intraperitoneally. Up to 200 mg/kg body weight was administered weekly for 3 consecutive weeks after postnatal day (P) 30 (range P30-44). Animal's health and welfare was monitored up to twice daily and animals were euthanized based on morbidity requirement.
91 μL Zr-89 oxalate in 1 M oxalic acid (Perkin Elmer) was diluted with 78 μL 1 M Na2CO3 to neutralize pH. Dendrimer 1b was dissolved in 0.5 M HEPES (pH 7.5). 33 μL neutralized Zr-89 stock (approximately 15 MBq) was added to the dendrimer (146 μg) to give 100-fold excess of the dendrimer to Zr-89 and labelling was allowed to proceed at room temperature for 1 hour. The sample was then buffer exchanged into phosphate-buffered saline using Zeba Spin Desalting Columns (7 kDa MWCO, Thermo Fisher Scientific). 1 μL sample of the solution was taken and spotted on thin layer chromatography paper (Agilent iTLC-SG Glass microfiber chromatography paper impregnated with silica gel) and run with 50 mM diethylenetriaminepentaacetic acid (DTPA) as the eluent. Control experiments were conducted to monitor the elution behaviour of unbound Zr-89 for quality control. Plates were then imaged on a Bruker In Vivo MS FX Pro imaging system using a radioisotopic phosphor screen. ˜100% chelation of the Zr-89 was observed and so the dendrimer was used directly for the imaging experiments.
Anaesthetized mice, with a cannulated tail vein, were placed in a combined MRI/PET system, comprising a 300 mm bore 7T ClinScan, running Siemens VB17, and removable PET insert containing 3 rings of 16 detector blocks with 15×15 LSO crystals (1.6×1.6×10 mm) per block, at the centre of the magnet bore operating under Siemens Inveon Acquisition Workplace (IAW) (Bruker, Germany). A 23 mm ID mouse head MRI RF coil inside the PET ring was used to acquire mouse head images simultaneously with the PET acquisition.
Mice were injected with approximately 5 MBq of Zr-89 labelled dendrimer 1b and imaged 40 hours and 5 days post-injection. At each imaging point a dose of Gadovist® contrast agent was injected to obtain pre- and post-contrast T1, T2, and dynamic image data. The injection dose at each timepoint was comprised of 50 μl Gadovist® diluted with PBS (1×) to give a total volume of 200 μl. This volume was injected via a catheter inserted into the tail vein in a slow bolus injection. Where collected, dynamic PET data acquisition was performed for 60 min. Prior to injection, fast localizer images and a 3D T1 weighted volumetric interpolated breath-hold examination VIBE sequence was acquired. Dynamic MRI images were acquired with a Gradient echo FLASH sequence, with 3 slices acquired each 2 seconds interval. The PET acquisition and dynamic MRI imaging was started simultaneously, a 2-3 min baseline period acquired and then the solution was injected. Following 15 min of dynamic MRI scanning, the T1 weighted VIBE was repeated, structural T2 weighted spin echo images acquired and a […] T1 weighted VIBE_DIXON sequence acquired to generate a 3D T1 map. […]

Substance	adverse health effects [1]	suppression of tumour growth, ranking among groups ([2]; group 4: higher dose, 4b 8 mg/kg (6 MBq) day 0, then Comparative Example A 8 mg/kg days 7 and 14)	suppression of tumour growth ([2]; groups 4 and 7: Lu-177 labelled 4b 8 or 5 mg/kg (6 MBq) day 0, then Comparative Example A days 7 and 14)	% ID/g at 40 hrs ([3]; Brain (minus tumour)) [% ID/g]	% ID/g at 5 days ([3]; Brain (minus tumour)) [% ID/g]	% ID/g at 40 hrs ([3]; Tumour) [% ID/g]	% ID/g at 5 days ([3]; Tumour) [% ID/g]	% ID/g at 40 hrs ([3]; Vascalature) [% ID/g]	% ID/g at 5 days ([3]; Vascalature) [% ID/g]
BHALys[Lys]32[(α-DGA-CTX)31(α-DFO)1(ε-PEG2000)32] [Compound 3]	no adverse health effects								
BHALys[Lys]32[(α-DGA-CTX)27(α-DOTA)2(ε-PEG2000)32] [Compound 4b]		most effective	effective in suppressing tumour growth						
BHALys[Lys]32[(α-TDA-DTX)30(α-DFO)2(ε-PEG2000)32] [Compound 1b]	no adverse health effects			2.0	1.5	4.3	4.0	2.3	2.0
